Among the data in US20040175799 are Ammonia releasing rate and deamidation ratio values, retold here.

The target in series [1] is T1, Myoglobin, horse skeletal muscle, P68082.
T1 chain: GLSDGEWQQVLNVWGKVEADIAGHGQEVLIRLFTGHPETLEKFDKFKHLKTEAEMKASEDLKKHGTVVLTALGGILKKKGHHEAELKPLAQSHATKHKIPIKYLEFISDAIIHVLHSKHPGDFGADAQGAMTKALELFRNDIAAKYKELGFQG

Series [2] has as its target Aprotinin, bovine lung, P00974.
The target in series [3] is T2, β-Lactoglobulin, bovine milk, P02754.
T2 chain: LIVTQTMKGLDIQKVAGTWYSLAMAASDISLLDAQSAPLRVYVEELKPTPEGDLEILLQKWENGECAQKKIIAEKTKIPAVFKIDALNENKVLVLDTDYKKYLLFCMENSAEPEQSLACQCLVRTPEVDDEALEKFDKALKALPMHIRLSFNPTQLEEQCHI

Series [4] has as its target T3, α-Lactoalbumin, bovine milk, P00711.
T3 chain: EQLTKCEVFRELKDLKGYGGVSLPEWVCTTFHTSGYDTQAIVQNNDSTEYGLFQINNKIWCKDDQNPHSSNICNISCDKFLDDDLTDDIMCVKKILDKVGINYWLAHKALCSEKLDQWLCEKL

Series [5] concerns the target Bovine serum albumin, bovine, P02769.
Series [6] addresses Actin, bovine muscle, P68138.
The target in series [7] is α-Chymotrypsinogen A, bovine pancreas, P00766.
In series [8] the target is Muscle acetone powder, chicken breast.
The target in series [9] is Gelatin, Type B, bovine skin.
Series [10] deals with Collagen, Type I, bovine Achilles tendon, P02453.
Series [11] addresses T4, Ovalbumin, chichen egg, P01012.
T4 chain: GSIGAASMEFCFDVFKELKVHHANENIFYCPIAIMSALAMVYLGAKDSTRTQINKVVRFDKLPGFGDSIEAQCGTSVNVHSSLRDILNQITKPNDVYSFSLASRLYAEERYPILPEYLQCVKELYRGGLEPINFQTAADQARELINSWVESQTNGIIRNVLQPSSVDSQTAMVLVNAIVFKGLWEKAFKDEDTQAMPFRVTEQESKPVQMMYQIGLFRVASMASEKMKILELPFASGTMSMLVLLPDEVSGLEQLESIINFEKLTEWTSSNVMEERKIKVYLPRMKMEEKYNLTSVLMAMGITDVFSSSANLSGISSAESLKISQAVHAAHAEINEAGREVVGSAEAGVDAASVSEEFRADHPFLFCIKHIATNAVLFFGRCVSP

The target of series [12] is T5, RNase A, bovine pancreas, P61823.
T5 chain: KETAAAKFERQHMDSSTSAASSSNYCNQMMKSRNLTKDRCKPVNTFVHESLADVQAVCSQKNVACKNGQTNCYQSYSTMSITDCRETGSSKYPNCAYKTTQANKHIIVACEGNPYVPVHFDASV

In series [13] the target is T6, β-Casein, bovine milk, P02666.
T6 chain: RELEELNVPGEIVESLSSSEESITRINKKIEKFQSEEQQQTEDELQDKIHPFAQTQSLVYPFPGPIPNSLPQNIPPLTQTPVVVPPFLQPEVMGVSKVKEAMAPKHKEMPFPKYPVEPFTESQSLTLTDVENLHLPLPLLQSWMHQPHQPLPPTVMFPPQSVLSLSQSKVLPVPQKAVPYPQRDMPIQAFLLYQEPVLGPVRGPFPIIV

Sequence of Bovine serum albumin, bovine, P02769 (P02769 25-607): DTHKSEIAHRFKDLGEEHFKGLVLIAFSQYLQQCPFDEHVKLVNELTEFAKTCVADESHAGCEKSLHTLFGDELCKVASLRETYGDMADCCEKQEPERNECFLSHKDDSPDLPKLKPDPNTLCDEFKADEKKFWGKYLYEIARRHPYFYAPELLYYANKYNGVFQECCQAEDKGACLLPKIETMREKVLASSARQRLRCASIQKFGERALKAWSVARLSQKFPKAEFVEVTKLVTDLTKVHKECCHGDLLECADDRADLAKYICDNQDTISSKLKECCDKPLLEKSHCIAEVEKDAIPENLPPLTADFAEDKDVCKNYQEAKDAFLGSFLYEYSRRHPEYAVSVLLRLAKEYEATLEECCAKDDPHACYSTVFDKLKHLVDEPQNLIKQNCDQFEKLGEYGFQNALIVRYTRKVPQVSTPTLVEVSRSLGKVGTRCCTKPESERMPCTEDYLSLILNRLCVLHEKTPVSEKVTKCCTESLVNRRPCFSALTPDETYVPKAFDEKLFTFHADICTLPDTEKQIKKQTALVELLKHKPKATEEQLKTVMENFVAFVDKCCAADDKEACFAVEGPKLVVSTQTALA
Sequence of Collagen, Type I, bovine Achilles tendon, P02453 (P02453 162-1217, chain 1 of 2): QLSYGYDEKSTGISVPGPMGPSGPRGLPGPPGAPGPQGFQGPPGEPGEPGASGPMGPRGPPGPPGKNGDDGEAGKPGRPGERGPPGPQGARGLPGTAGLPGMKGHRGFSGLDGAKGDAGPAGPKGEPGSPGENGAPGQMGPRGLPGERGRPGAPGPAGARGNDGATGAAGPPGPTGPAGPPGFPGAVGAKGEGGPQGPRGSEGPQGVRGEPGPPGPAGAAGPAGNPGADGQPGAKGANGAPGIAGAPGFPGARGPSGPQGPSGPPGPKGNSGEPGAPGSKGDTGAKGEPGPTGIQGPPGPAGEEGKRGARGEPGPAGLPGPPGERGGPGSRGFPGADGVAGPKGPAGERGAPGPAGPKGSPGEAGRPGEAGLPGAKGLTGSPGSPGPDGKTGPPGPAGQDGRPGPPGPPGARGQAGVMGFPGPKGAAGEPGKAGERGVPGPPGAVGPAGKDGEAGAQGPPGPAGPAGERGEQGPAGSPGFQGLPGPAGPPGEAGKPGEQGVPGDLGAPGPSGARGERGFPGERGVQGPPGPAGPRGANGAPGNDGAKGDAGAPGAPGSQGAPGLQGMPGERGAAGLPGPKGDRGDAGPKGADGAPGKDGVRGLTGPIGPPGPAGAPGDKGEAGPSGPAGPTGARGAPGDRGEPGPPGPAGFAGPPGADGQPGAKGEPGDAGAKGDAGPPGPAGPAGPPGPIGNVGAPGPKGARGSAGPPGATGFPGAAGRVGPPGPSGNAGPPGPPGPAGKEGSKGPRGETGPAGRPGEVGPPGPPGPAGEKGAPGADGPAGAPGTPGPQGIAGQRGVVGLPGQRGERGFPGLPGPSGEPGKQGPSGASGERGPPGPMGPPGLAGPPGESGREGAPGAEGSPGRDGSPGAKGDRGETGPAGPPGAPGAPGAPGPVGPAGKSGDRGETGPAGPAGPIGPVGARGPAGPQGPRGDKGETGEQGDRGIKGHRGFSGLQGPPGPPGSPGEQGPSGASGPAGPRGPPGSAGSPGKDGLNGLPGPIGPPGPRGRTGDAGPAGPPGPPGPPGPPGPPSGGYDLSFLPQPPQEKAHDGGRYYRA
Sequence of Collagen, Type I, bovine Achilles tendon, P02453 (P02453 other isoform, or with tags, fused parts or gaps, chain 2 of 2): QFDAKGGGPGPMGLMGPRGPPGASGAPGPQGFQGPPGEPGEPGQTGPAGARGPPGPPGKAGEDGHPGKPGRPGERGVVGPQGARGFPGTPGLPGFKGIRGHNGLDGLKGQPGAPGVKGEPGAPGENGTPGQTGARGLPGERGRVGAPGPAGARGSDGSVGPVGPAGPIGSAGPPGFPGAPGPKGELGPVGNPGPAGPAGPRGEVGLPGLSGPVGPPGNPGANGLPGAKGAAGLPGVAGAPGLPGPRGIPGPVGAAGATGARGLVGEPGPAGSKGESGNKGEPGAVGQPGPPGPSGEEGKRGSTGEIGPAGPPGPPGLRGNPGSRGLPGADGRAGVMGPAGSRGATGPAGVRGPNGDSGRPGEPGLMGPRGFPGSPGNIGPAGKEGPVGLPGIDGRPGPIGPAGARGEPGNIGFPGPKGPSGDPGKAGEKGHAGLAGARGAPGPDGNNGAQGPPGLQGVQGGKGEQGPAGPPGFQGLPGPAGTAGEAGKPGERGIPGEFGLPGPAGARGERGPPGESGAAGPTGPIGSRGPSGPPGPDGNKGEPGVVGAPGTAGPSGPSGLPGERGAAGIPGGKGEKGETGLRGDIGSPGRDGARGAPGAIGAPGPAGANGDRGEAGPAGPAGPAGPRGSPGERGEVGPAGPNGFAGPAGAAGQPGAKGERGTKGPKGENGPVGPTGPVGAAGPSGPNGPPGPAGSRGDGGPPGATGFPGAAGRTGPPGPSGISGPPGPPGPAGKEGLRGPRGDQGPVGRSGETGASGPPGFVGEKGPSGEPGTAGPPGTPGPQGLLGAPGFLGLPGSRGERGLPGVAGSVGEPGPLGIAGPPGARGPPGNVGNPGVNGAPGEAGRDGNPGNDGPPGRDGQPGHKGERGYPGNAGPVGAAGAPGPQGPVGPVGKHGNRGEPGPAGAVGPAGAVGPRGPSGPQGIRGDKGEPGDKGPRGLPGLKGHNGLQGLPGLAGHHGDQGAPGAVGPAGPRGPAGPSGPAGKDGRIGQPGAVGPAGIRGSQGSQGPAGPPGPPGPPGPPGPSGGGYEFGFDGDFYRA

B1: protein-deamidating enzyme purified from Chryseobacterium sp. No. 9670 (protein)
chain: LASVIPDVATLNSLFNQIKNQSCGTSTASSPCITFRYPVDGCYARAHKMRQILMNNGYDCEKQFVYGNLKASTGTCCVAWSYHVAILVSYKNASGVTEKRIIDPSLFSSGPVTDTAWRNACVNTSCGSASVSSYANTAGNVYYRSPSNSYLYDNNLINTNCVLTKFSLLSGCSPSPAPDVSSCGF
As for B1, the Ammonia releasing rate in series [1] was 0.014 µmol/min/mg; in series [2] it was 0.224 µmol/min/mg; in series [3], 0.728 µmol/min/mg; in series [4] it was 0.836 µmol/min/mg; in series [5], 0.009 µmol/min/mg; with Gluten, wheat, 7.2 µmol/min/mg. The Ammonia releasing rate was determined as 0.45 µmol/min/mg in series [6]; 0.65 µmol/min/mg in [7]; 0.655 µmol/min/mg in the series with Zein, corn; 0.21 µmol/min/mg in series [8]; 0.696 µmol/min/mg in series [9]; 0.177 µmol/min/mg in series [10]. Besides, the Ammonia releasing rate in series [11] was 0.005 µmol/min/mg; with Soy protein isolate it was 1.17 µmol/min/mg; in [12] it was 2.91 µmol/min/mg; with α-Casein, bovine milk it was 19.1 µmol/min/mg; in [13] it was 18.1 µmol/min/mg; in the series with Gliadin, what (wheat), 5.47 µmol/min/mg. The deamidation ratio turned out to be 74% in wheat gluten in the series with Gluten, wheat; 7% in albumen protein with albumen protein; 23% in whey protein with whey protein; 20% in soybean protein with soybean protein; 60% in caseinate with milk caseinate.
